According to the RNAGym collection of RNA variant scans (doi:10.1073/pnas.2313332121):

B1: TPR t1 (parent)
chain: GACCAAUCUGCCCUCAGAGCUCGAGAACAUCUUCGGAUGCAGAGGAGGCAGGCUUCGGUGGCGCGAUAGCGCCAACGUCCUCAACCUCCAAUGCAUCCCACCACAUGAUGAUGCCUGAAGAGCCUUGGUUUUUUG

Variants of: B1
Experiment: polymerase ribozyme fitness, log enrichment relative to wild type (log ratio); higher = more active; in vitro selection for triplet polymerase activity
Summary of the method: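 Fitness compares each genotype's enrichment to that of the wild type on a logarithmic scale, averaging replicates with inverse-variance weights. The logarithm is base 2. Enrichment came from Illumina sequencing of input and output libraries after one triplicate round of in vitro selection, which included frozen incubation at −7 °C, of PCR-built, transcribed mutant libraries of each subunit of a heterodimeric triplet polymerase ribozyme. Only genotypes with ≥10 input reads and ≥1 read per output were kept.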

| Variant | polymerase ribozyme fitness (log ratio) |
| --- | --- |
| GACCAAUCUGCCCUCAGAGCUCGAGAACAUCUUCGGAUGCAGAGGAGGCAGGCUUCGGUGGCGCGAUAGCUCCAACGUCCUCAACCUCCAUUGCAUCCCACCACAUGAUGAUGCCUGAAGAGCCUUGGUUUCUUG [G71U A91U U132C] | -2.4 |
| GACCAAUCUGCCCUCAGAGCUCGAGAACAUCUUCGGAUGCAGAGGAGGCAGGCUUCGGUGGCGCGAUAGCCCCAACGUCCUCAACCUCCAAUGCAUCCCACCACAUGAUGAUGCCUGAAGAGCCUUCGUUUUUUG [G71C G127C] | -2.16 |
| GACCAAUCUGCCCUCAGAGCUCGAGAACAUCUUCGGAUGCAGAGGAGGCAGGCUUCGGUGGCGCGAUAGCCCCAACGUCCUCAACCUCCAAUGCAUCCCACCACAAGAUGAUCCCUGAAGAGCCUUGGUUUUUUG [G71C U106A G113C] | -3.53 |
| GACCAAUCUGCCCUCAGAGCUCGAGAACAUCUUCGGAUGCAGAGGAGGCAGGCUUCGGUGGCGCGAUAGCCCCAACGUCCUCAACCUCCAAUGCAUCCCACCACAUGAUGAUGCCUGAAAAGCCUUGGUUUUUUG [G71C G120A] | -0.0968 |
| GACCAAUCUGCCCUCAGAGCUCGAGAACAUCUUCGGAUGCAGAGGAGGCAGGCUUCGGUGGCGCGAUAGCCCCAACGUCCUCAACCUGCAAUGCAUCCCACCACAUGAUGAUGCCUGAAGAGCCUUGGUUUUUUG [G71C C88G] | -1.88 |
| GACCAAUCUGCCCUCAGAGCUCGAGAACAUCUUCGGAUGCAGAGGAGGCAGGCUUCGGUGGCGCGAUAGCUCCAACGUCCUCAACCUCCAAUGCAUCCCACCACCUGAUGAUGCCUGAAGAGCCUUGGUUUUUUG [G71U A105C] | -2.99 |
| GACCAAUCUGCCCUCAGAGCUCGAGAACAUCUUCGGAUGCAGAGGAGGCAGGCUUCGGUGGCGCGAUAGCCCCAACGUCCUCAACCUCCAAUGCAUCCCACCACAUGAUGAUGCCUGAAGAGCCUUGGUAUUUUG [G71C U130A] | -1.3 |
| GACCAAUCUGCCCUCAGAGCUCGAGAACAUCUUCGGAUGCAGAGGAGGCAGGCUUCGGUGGCGCGAUAGCCCCAACGUCCUCAACCUCCAAUGCACCCCACCACAUGAUGAUGCCUGAAGAGCCUUAGUUUUUUG [G71C U96C G127A] | -3.25 |
| GACCAAUCUGCCCUCAGAGCUCGAGAACAUCUUCGGAUGCAGAGGAGGCAGGCUUCGGUGGCGCGAUAGCUCCAACGUUCUCAACCUCCAAUGCAUCCCACCACAUGAUGAUGCCUGAAGAGCCUUGGUUUUUUG [G71U C79U] | -0.201 |
| GACCAAUCUGCCCUCAGAGCUCGAGAACAUCUUCGGAUGCAGAGGAGGCAGGCUUCGGUGGCGCGAUAGCUCCAAAGUCCUCAACCUCCAAUGCAUCCCACCACAUGAUGAUGCCUGAAGAGCCUUGGUUUUUUG [G71U C76A] | -5.51 |
| GACCAAUCUGCCCUCAGAGCUCGAGAACAUCUUCGGAUGCAGAGGAGGCAGGCUUCGGUGGCGCGAUAGCCCCAACGUCCUCAACCUCCAACGCAUCCCACCACAUGAUGAUGCCUGAAGAGCCUUGGUUUUUUG [G71C U92C] | -2.76 |
| GACCAAUCUGCCCUCAGAGCUCGAGAACAUCUUCGGAUGCAGAGGAGGCAGGCUUCGGUGGCGCGAUAGCCCCAACGUCCUCAACCUCCAAUCCAUCCCACCACAUGAUGAUGCCUGAAGAGCCUUAGUUUUUUG [G71C G93C G127A] | -2.95 |
| GACCAAUCUGCCCUCAGAGCUCGAGAACAUCUUCGGAUGCAGAGGAGGCAGGCUUCGGUGGCGCGAUAGCCCCAACGUCCUCAACCUCCAAUGCAUCCCACCACAUGAUGAUGCCUCAAGAGCCUUGGUUUUUUG [G71C G117C] | -4.7 |
| GACCAAUCUGCCCUCAGAGCUCGAGAACAUCUUCGGAUGCAGAGGAGGCAGGCUUCGGUGGCGCGAUAGCCCCAACGACCUCAACCUCCAAUGCAUCCCACCACAUGAUGAUGCCUGGAGAGCCUUGGUUUUUUG [G71C U78A A118G] | -0.642 |
| GACCAAUCUGCCCUCAGAGCUCGAGAACAUCUUCGGAUGCAGAGGAGGCAGGCUUCGGUGGCGCGAUAGCCCCAACGUCCUCAACCUCCAAUGCAUCUCACCACAUGAUGAUGCCUGAAGAGCCUUGGUUUUUUG [G71C C98U] | -1.75 |
| GACCAAUCUGCCCUCAGAGCUCGAGAACAUCUUCGGAUGCAGAGGAGGCAGGCUUCGGUGGCGCGAUAGCCCCAACGUACUCAAGCUCCAAUGCAUCCCACCACAUGAUGAUGCCUGAAAAGCCUUGGUUUUUUG [G71C C79A C85G G120A] | -3.28 |
| GACCAAUCUGCCCUCAGAGCUCGAGAACAUCUUCGGAUGCAGAGGAGGCAGGCUUCGGUGGCGCGAUAGCCCCAACGUCCUCAACCCCCAAUGCAUCCCACCACAUGAUGAUGCCUGAAGAGCCUUGGUUUUUUG [G71C U87C] | -1.45 |
| GACCAAUCUGCCCUCAGAGCUCGAGAACAUCUUCGGAUGCAGAGGAGGCAGGCUUCGGUGGCGCGAUAGCUCCAACGUCCUCAACCUCGAAUGCAUCCCACCACAUGAUGAUGCCUGAAGAGCCUUGGUUUUUUG [G71U C89G] | -1.88 |
| GACCAAUCUGCCCUCAGAGCUCGAGAACAUCUUCGGAUGCAGAGGAGGCAGGCUUCGGUGGCGCGAUAGCCCCAACGUCCUCAUCCUCCAAUGCAUCCCACCACAUGAUGAUGCCUGAAGAGCCUUGGUUUUUUG [G71C A84U] | -2.77 |
| GACCAAUCUGCCCUCAGAGCUCGAGAACAUCUUCGGAUGCAGAGGAGGCAGGCUUCGGUGGCGCGAUAGCUCCAACGUCCUCAACCUCCAAUGCAUCCCAGCACAGGAUGAUGCCUGAAGAGCCUUGGUUUUUUG [G71U C101G U106G] | -3.61 |
| GACCAAUCUGCCCUCAGAGCUCGAGAACAUCUUCGGAUGCAGAGGAGGCAGGCUUCGGUGGCGCGAUAGCCCCAACGUACUCAACCUCCAAUGCAUCCCACCACAUGAUGAUGCCUGAAGAGCCUUGGUUUUUUG [G71C C79A] | -1.86 |
